Article PMC2966024

Molecular target: PspB-T25 fusion (Y. enterocolitica PspB with Cya-T25 fused to its C-terminus) (Y. enterocolitica)
Assay: two-hybrid

Substance: PspA-T18 fusion (Y. enterocolitica PspA with Cya-T18 fused to its C-terminus) (from UniProt Q9F4H4 1-221) (natural protein)
- beta-galactosidase activity: 1470 Miller units
